Experiment [1] concerns the target T1, human α2 integrin with endogenous hamster β1 on CHO cells (human; hamster). The experiment is described as follows: cell-based or functional assay.
For experiment [2], the target named is T2, human platelet α2β1 integrin (immobilized on microtiter plates) (human, UniProt P17301 30-1181; P05556 21-798).
T2 construct: plates custom-coated with human platelet α2β1 by GTI Inc; also called immobilized α2β1 integrin; α2β1-coated plates
The experiment is described as follows: competition with Eu-TMC-2206 on human platelet α2β1-coated plate. As to the method:
(§1) Each labeled antibody mixture was applied to a separate PD-10 column (GE Biosciences, Piscataway, N.J.) pre-equilibrated with Running Buffer (50 mM Tris, pH 7.4 and 138 mM NaCl). Fractions (0.5 mL) were collected and assayed for total protein (Bradford reagent; Bio-Rad Laboratories, Hercules, Calif.) using a SpectraMax 384 absorbance plate reader and for europium after 1:10.000 dilution in DELFIA Enhancement Solution (Perkin-Elmer) by time-resolved fluorescence (TRF) using a Victor2 multi-label plate reader (Perkin Elmer). The fractions that were positive for both protein and Eu label were pooled and applied to new PD-10 columns and samples collected and assayed for total protein and for europium content by TRF calibrated against a europium standard solution (Perkin-Elmer) to calculate the fluor: protein ratio. […] After incubating the sealed plates for 1 hr at 37° C. to allow binding to reach equilibrium, 2 μL samples were transferred from each well into a fresh well containing DELFIA Enhancement Solution (100 μL/well; Perkin-Elmer) for the measurement of free (unbound) label. Enhancement Solution (100 μL/well) was added to the emptied wells for the measurement of bound label. The plate was shaken (Titer Plate Shaker speed setting of 5 for 5 minutes at room temperature) and time-resolved fluorescent (TRF) intensities were read using a Victor2 multi-label plate reader (Perkin-Elmer Wallac, Boston, Mas.).

For experiment [3], the target named is T2, human platelet α2β1 integrin …. Described as above. As to the method: Exemplary IgG1 antibodies have a hVH 14.0 γ heavy chain (SEQ ID NO:181) or a hVH12.0 γ1 heavy chain (SEQ ID NO:182) and a hVL10.0Q light chain (SEQ ID NO:178). Exemplary IgG4 antibodies have a hVH14.0 γ4 heavy chain (SEQ ID NO:174) or a hVH12.0 γ4 heavy chain (SEQ ID NO:176) and a hVL 10.0Q light chain (SEQ ID NO:178). Purified antibodies were tested in the competition assay to compare potency by Kᵢ values as well as in the cell adhesion to collagen assay, where potency is measured as EC₅₀ values.
The source holds these as a separate data set.

For experiment [4] the target is unchanged. The description is as above. This is another data set of the same source.
Experiment [5] deals with T1, human α2 integrin with endogenous …. Description: cell-based or functional assay. This is another data set of the same source.
Experiment [6] concerns the target T2, human platelet α2β1 integrin …. The experiment is described as follows: competition with Eu-TMC-2206 on human platelet α2β1-coated plate. As to the method:
as §1
This is another data set of the same source.

For experiment [7], the target named is T3, TMC-2206.
T3 construct: murine IgG1/κ secreted by hybridoma BHA2.1; labelled with Eu-N1-ITC where used as tracer; also called BHA2.1
The experiment is described as follows: fusion protein competing Eu-TMC-2206 off α2β1-coated plate.

Where a chain is given by its changes, count along the chain named. In names and notes the source's numbering stands. Where two headings read alike, the source gives them in different places.

B1: humanized TMC-2206 variant hIgG1/κ VH12.0/VL10.0Q (antibody)
heavy: not shown
light: DFVMTQSPAFLSVTPGEKVTITCSAQSSVNYIHWYQQKPDQAPKKLIYDTSKLASGVPSRFSGSGSGTDYTFTISSLEAEDAATYYCQQWTTNPLTFGQGTKVEIKRTVAAPSVFIFPPSDEQLKSGTASVVCLLNNFYPREAKVQWKVDNALQSGNSQESVTEQDSKDSTYSLSSTLTLSKADYEKHKVYACEVTHQGLSSPVTKSFNRGEC
notes: hVH12.0 γ1 heavy chain and hVL10.0Q light chain; also called VH 12.0 VL 10.0Q (IgG1)
For the molecule B1, in experiment [1], the “EC50 (nM), cell adhesion to collagen assay” value was found to be 2.2 nM. Further, the Ki in experiment [2] stood at 0.31 nM; in experiment [3], 0.27 nM.

B2: humanized TMC-2206 variant hIgG4/κ VH14.0/VL10.0Q (antibody)
heavy: not shown
light: B1 light
notes: hVH14.0 γ4 heavy chain and hVL10.0Q light chain
With B2, the Ki in experiment [3] stood at 0.36 nM.

B3: TMC-2206 VH D100R variant antibody (antibody, V domains shown)
VH: QVQLKESGPGLVAPSQSLSITCTVSGFSLTNYGIHWVRQPPGKGLEWLGVIWARGFTNYNSALMSRLIITKDNSQSQVFLKMNSLQPDDSATYFCARANRGVYYAMDYWGQGTSVTVSS
VL: QFVLTQSPAFLSASPGEKVTMTCSANSSVNYIHWYQQKSGTSPKKWIYDTSKLASGVPVRFSGSGSGTSYSLTISSMETEDAATYYCQQWTTNPLTFGAGTRVELK
notes: variant murine VH-containing antibody; also called reverse charge mutant D100R
For B3, the Ki in experiment [4] worked out at 0.41 nM.

B4: humanized TMC-2206 variant hVH1.0/hVL1.0 (antibody, human IgG1, V domains shown)
VH: QVQLQESGPGLVKPSETLSLTCTVSGFSLTNYGIHWVRQPPGKGLEWLGVIWARGFTNYNSALMSRLTISKDNSKNQVSLKLSSVTAADTAVYFCARANDGVYYAMDYWGQGTLVTVSS
VL: QFVLTQSPAFLSVTPGEKVTITCSANSSVNYIHWYQQKPDQAPKKWIYDTSKLASGVPSRFSGSGSGTDYTFTISSLEAEDAATYYCQQWTTNPLTFGQGTKVEIK
notes: human IgG1/κ constant regions; also called humanized prototype; first humanized prototype
Consider B4, for which, in experiment [5], the “EC50, inhibition of cell adhesion to collagen” value amounted to 1.5 nM. Further, the Ki in experiment [4] came to 0.32 nM; in experiment [6], 0.33 nM; in experiment [2], 0.27 nM.

B5: humanized TMC-2206 variant hVH14.0/hVL12.0Q (antibody, human IgG1, V domains shown)
VH: B4 VH with V37I, L67V, F94Y
VL: B4 VL with Q1D, L4M, N26Q, W46L, Y70F
notes: human IgG1/κ constant regions; also called VH 14.0 VL 12.0Q
With B5, in experiment [2], affinity was put at a Ki of 0.33 nM.

B6: humanized TMC-2206 variant hVH3.0/hVL4.0 (antibody, human IgG1, V domains shown)
VH: B4 VH with L67V, K71V, N73T, V78F
VL: B4 VL with Q1D, F2V, L4M
notes: human IgG1/κ constant regions
Regarding B6, in experiment [6], the Ki stood at 118 nM and the “fold shift in potency compared to the hVH1.0, hVL1.0 variant” value (“fold shift in potency” for short) came out at 358 fold.

B7: humanized TMC-2206 variant hVH3.0/hVL1.0 (antibody, human IgG1, V domains shown)
VH: B4 VH with L67V, K71V, N73T, V78F
VL: B4 VL
notes: human IgG1/κ constant regions
With B7, in experiment [6], the affinity corresponds to a Ki of 12 nM and the “fold shift in potency” value was found to be 36 fold.

B8: humanized TMC-2206 variant hVH11.0, hVL1.0 (antibody, human IgG1, V domains shown)
VH: B4 VH with L48I, V78F
VL: B4 VL
notes: human IgG1/κ constant regions
Turning to B8, in experiment [4], the “fold decrease in potency compared to the hVH1.0, hVL1.0 variant (Ki)” value was 70 fold.

B9: humanized TMC-2206 variant hVH4.0/hVL1.0 (antibody, human IgG1, V domains shown)
VH: B4 VH with V37I, L48I
VL: B4 VL
notes: human IgG1/κ constant regions
Regarding B9, in experiment [6], the affinity corresponds to a Ki of 0.44 nM and the “fold shift in potency” value was found to be 1.3 fold.

B10: humanized TMC-2206 variant hVH9.0, hVL1.0 (antibody, human IgG1, V domains shown)
VH: B4 VH with L48I, K71V
VL: B4 VL
notes: human IgG1/κ constant regions
For B10, the “fold decrease (Ki)” value in experiment [4] turned out to be 6.4 fold.

B11: humanized TMC-2206 variant hVH1.0/hVL4.0 (antibody, human IgG1, V domains shown)
VH: B4 VH
VL: B4 VL with Q1D, F2V, L4M
notes: human IgG1/κ constant regions
For B11, in experiment [6], the Ki is 1.4 nM and the “fold shift in potency” value was 4.2 fold.

B12: humanized TMC-2206 variant hVH1.0/hVL9.0 (antibody, V domains shown)
VH: B4 VH
VL: B4 VL with Y48K
notes: human IgG1/κ; also called change of L49 to the human lysine
Turning to B12, the “fold decrease in potency as measured by Ki” value in experiment [4] was determined as 3.3 fold.

B13: humanized TMC-2206 variant hVH12.0/hVL10.0 (antibody, human IgG1, V domains shown)
VH: B4 VH with V37I, F94Y
VL: B4 VL with Q1D, L4M, W46L
notes: human IgG1/κ constant regions; also called VH 12.0 VL 10.0
Consider B13, for which the Ki in experiment [2] turned out to be 0.29 nM.

B14: humanized TMC-2206 variant hVH10.0/hVL1.0 (antibody, V domains shown)
VH: B4 VH with N73T
VL: B4 VL
notes: human IgG1/κ; also called change to Thr-H73
Turning to B14, the “fold decrease as measured by Ki” value in experiment [4] amounted to 1.6 fold.

B15: humanized TMC-2206 variant hVH4.0/hVL3.0 (antibody, human IgG1, V domains shown)
VH: B4 VH with V37I, L48I
VL: B4 VL with K45L, W46L
notes: human IgG1/κ constant regions
With B15, in experiment [6], the Ki was 1.34 nM and the “fold shift in potency” value was determined as 4.2 fold.

B16: humanized TMC-2206 variant hVH14.0/hVL10.0 (antibody, human IgG1, V domains shown)
VH: B4 VH with V37I, L67V, F94Y
VL: B4 VL with Q1D, L4M, W46L
notes: human IgG1/κ constant regions; also called VH 14.0 VL 10.0
In experiment [2], B16 displayed a Ki of 0.32 nM.

B17: humanized TMC-2206 variant hVH14.0/hVL12.0 (antibody, human IgG1, V domains shown)
VH: B4 VH with V37I, L67V, F94Y
VL: B4 VL with Q1D, L4M, W46L, Y70F
notes: human IgG1/κ constant regions; also called VH 14.0 VL 12.0
For B17, the Ki in experiment [2] stood at 0.38 nM.

B18: humanized TMC-2206 variant hVH1.0/hVL3.0 (antibody, human IgG1, V domains shown)
VH: B4 VH
VL: B4 VL with K45L, W46L
notes: human IgG1/κ constant regions; also called VH1.0/VL3.0
On to B18, for which, in experiment [6], the affinity, expressed as Ki, was 0.64 nM and the “fold shift in potency” value amounted to 1.9 fold.

B19: humanized TMC-2206 variant hVH4.0/hVL4.0 (antibody, human IgG1, V domains shown)
VH: B4 VH with V37I, L48I
VL: B4 VL with Q1D, F2V, L4M
notes: human IgG1/κ constant regions
Take B19: in experiment [6], the Ki stood at 2.6 nM and the “fold shift in potency” value was found to be 7.9 fold.

B20: humanized TMC-2206 variant hVH1.0/hVL1.0Q (antibody, human IgG1, V domains shown)
VH: B4 VH
VL: B4 VL with N26Q
notes: human IgG1/κ constant regions; also called VH 1.0 VL 1.0Q
As to B20, the Ki in experiment [2] was found to be 0.35 nM.

B21: humanized TMC-2206 variant hVH3.0/hVL3.0 (antibody, human IgG1, V domains shown)
VH: B4 VH with L67V, K71V, N73T, V78F
VL: B4 VL with K45L, W46L
notes: human IgG1/κ constant regions
Take B21: in experiment [6], the affinity, expressed as Ki, was 202 nM and the “fold shift in potency” value was found to be 631 fold.

B22: GST-hα2 I domain R165D (other)
chain: GSSPDFQLSASFSPATQPCPSLIDVVVVCDESNSIYPWDAVKNFLEKFVQGLDIGPTKTQVGLIQYANNPRVVFNLNTYKTKEEMIVATSQTSQYGGDLTNTFGAIQYARKYAYSAASGGRRSATKVMVVVTDGESHDGSMLKAVIDQCNHDNILRFGIAVLGYLNDNALDTKNLIKEIKAIASIPTERYFFNVSDEAALLEKAGTLGEQIFSIEGTVEFIVTD
notes: same construct as m41; not shown: GST carrier with the pGEX-2TK vector linker at the N end
On to B22, for which affinity in experiment [7] was put at a Ki of 1990 nM.

As a reminder, the Ki is a dissociation constant, usually derived from enzyme kinetics or from competition with a known ligand. Read a high Ki as lower affinity.

Values taken from patent US20070128190A1 (GLENMARK PHARMACEUTICALS S A, published 2007).
